Source: US20150258211

Test system: GST-GFP fusion protein expressed from pJB-HTS-GFP (GST, hexa-histidine tag, thrombin cleavage site LVPRGS, GFP) [GST: P08515]
Sequence (P08515 whole entry, looked up, the tested form may be a part): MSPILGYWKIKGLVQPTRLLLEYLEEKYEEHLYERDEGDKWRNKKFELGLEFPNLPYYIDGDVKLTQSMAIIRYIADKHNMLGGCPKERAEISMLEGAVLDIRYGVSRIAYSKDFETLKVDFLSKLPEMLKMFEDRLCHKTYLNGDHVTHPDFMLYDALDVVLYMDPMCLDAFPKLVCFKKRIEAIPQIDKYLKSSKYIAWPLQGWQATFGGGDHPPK

thrombin
Michaelis-Menten constant (Km) of thrombin cleavage of GST-GFP associated with PEGDA-GSH microspheres, SDS-PAGE densitometry: significantly increased from approximately 0.18 µM to 0.30 µM
Michaelis-Menten constant (Km) of thrombin cleavage of free GST-GFP, SDS-PAGE densitometry: significantly increased from approximately 0.18 µM to 0.30 µM
